Laboratory results published in patent publication US20140087995A1 (published 2014).
Numbered stars: 1 amine (or outer) side, 2 acyl side, 3 side chain; on linkers, the order of the positions; unused ones are H or OH. Bridge positions count the residues as written; N and C are the ends. Side chains are listed from the residue outwards. Ends that are not written are not given here. * marks the point of attachment. C20 diacid = O=C(O)CCCCCCCCCCCCCCCCCCC(=O)*; γGlu = O=C(O)[C@H](CCC(=O)[*:2])N[*:1]

T1: human calcitonin receptor (human, UniProt P30988 25-474)
T1 construct: whole, on cells; Used as membranes prepared from the transfected cells (Assay VII); also called hCTR; hCT
T1 sequence (looked up): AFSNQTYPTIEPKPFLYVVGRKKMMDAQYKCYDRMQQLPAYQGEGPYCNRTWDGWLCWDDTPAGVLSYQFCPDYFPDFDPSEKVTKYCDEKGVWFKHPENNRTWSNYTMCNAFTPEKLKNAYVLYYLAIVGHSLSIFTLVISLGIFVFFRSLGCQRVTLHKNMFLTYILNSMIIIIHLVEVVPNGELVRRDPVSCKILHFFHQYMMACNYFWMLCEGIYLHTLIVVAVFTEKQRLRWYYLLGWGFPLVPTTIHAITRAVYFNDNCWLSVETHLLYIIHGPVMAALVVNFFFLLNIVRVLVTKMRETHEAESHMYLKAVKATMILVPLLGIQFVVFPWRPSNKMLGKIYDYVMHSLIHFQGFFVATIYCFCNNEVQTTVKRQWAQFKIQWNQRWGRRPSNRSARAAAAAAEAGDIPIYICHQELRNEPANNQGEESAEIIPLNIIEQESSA

T2: rat amylin receptor (rat calcitonin receptor + rat RAMP 3) (rat, UniProt P32214 25-516; Q9JJ73 23-147)
T2 construct: whole, on cells; Used as membranes prepared from the transfected cells (Assay VI); also called rAmylin-R; rat amylin 3(a) receptor
T2 sequence (looked up) 1: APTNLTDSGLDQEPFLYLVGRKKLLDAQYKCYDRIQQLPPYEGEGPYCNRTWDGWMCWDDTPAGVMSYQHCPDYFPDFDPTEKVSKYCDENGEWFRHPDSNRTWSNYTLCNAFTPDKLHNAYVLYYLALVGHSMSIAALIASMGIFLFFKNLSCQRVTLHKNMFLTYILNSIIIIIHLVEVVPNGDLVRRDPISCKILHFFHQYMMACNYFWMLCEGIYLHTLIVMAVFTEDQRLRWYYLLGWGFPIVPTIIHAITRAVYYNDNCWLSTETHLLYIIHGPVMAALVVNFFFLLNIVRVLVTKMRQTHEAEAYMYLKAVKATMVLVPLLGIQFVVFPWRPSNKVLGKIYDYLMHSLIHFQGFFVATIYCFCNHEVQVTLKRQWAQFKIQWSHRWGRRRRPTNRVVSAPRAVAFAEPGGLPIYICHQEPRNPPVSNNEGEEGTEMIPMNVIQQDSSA
T2 sequence (looked up) 2: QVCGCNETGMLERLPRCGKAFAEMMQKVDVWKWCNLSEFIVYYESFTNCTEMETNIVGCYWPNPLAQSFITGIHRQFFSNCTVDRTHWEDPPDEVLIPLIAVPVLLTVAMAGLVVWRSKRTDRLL

T3: rat calcitonin receptor (rat, UniProt P32214 25-516)
T3 construct: whole, on cells; Used as membranes prepared from the transfected cells (Assay VIII); also called rCTR; rat calcitonin (a) receptor
T3 sequence (looked up): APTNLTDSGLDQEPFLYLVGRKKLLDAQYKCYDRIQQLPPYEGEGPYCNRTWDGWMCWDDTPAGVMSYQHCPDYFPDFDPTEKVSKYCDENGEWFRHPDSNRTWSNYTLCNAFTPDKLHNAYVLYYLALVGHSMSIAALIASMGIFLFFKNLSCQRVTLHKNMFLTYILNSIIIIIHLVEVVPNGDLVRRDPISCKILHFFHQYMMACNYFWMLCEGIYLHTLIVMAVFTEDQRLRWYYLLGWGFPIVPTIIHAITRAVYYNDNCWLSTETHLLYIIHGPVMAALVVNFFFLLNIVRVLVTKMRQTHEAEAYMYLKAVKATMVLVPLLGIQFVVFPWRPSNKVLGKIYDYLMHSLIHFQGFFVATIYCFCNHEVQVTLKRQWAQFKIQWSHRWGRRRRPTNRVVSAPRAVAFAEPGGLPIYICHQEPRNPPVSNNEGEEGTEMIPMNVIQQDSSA

B1: N^ε1-[(4S)-4-carboxy-4-[[(4S)-4-carboxy-4-(19-carboxynonadecanoylamino)butanoyl]amino]butanoyl]-[Arg17,Pro21,Pro27,Pro31,Pro34,Arg35]-h-amylin (peptide)
peptide: K([γGlu-γGlu-C20 diacid])CNTATCATQRLANFLRHSSPNFGAIPSSTPVGPRTY-NH2
modifications: disulfide 2-7; N-terminus assumed
SMILES: CC[C@H](C)[C@H](NC(=O)[C@H](C)NC(=O)CNC(=O)[C@H](Cc1ccccc1)NC(=O)[C@H](CC(N)=O)NC(=O)[C@@H]1CCCN1C(=O)[C@H](CO)NC(=O)[C@H](CO)NC(=O)[C@H](Cc1c[nH]cn1)NC(=O)[C@H](CCCNC(=N)N)NC(=O)[C@H](CC(C)C)NC(=O)[C@H](Cc1ccccc1)NC(=O)[C@H](CC(N)=O)NC(=O)[C@H](C)NC(=O)[C@H](CC(C)C)NC(=O)[C@H](CCCNC(=N)N)NC(=O)[C@H](CCC(N)=O)NC(=O)[C@@H](NC(=O)[C@H](C)NC(=O)[C@@H]1CSSC[C@H](NC(=O)[C@@H](N)CCCCNC(=O)CC[C@H](NC(=O)CC[C@H](NC(=O)CCCCCCCCCCCCCCCCCCC(=O)O)C(=O)O)C(=O)O)C(=O)N[C@@H](CC(N)=O)C(=O)N[C@@H]([C@@H](C)O)C(=O)N[C@@H](C)C(=O)N[C@@H]([C@@H](C)O)C(=O)N1)[C@@H](C)O)C(=O)N1CCC[C@H]1C(=O)N[C@@H](CO)C(=O)N[C@@H](CO)C(=O)N[C@H](C(=O)N1CCC[C@H]1C(=O)N[C@H](C(=O)NCC(=O)N1CCC[C@H]1C(=O)N[C@@H](CCCNC(=N)N)C(=O)N[C@H](C(=O)N[C@@H](Cc1ccc(O)cc1)C(N)=O)[C@@H](C)O)C(C)C)[C@@H](C)O
notes: not restated for each compound
B2: N^ε1-[(4S)-4-carboxy-4-[[(4S)-4-carboxy-4-(19-carboxynonadecanoylamino)butanoyl]amino]butanoyl]-[Glu14,Arg17,Pro21,Pro31,Pro34,Glu35]-h-amylin (peptide)
peptide: K([γGlu-γGlu-C20 diacid])CNTATCATQRLAEFLRHSSPNFGAILSSTPVGPETY-NH2
modifications: disulfide 2-7 (inferred)
notes: as for B1
B3: N^ε1-[(4S)-4-carboxy-4-[[(4S)-4-carboxy-4-(19-carboxynonadecanoylamino)butanoyl]amino]butanoyl]-[Ser14,Arg17,Pro21,Pro27,Pro34,Glu35]-h-amylin (peptide)
peptide: K([γGlu-γGlu-C20 diacid])CNTATCATQRLASFLRHSSPNFGAIPSSTNVGPETY-NH2
modifications: disulfide 2-7; N-terminus assumed
SMILES: CC[C@H](C)[C@H](NC(=O)[C@H](C)NC(=O)CNC(=O)[C@H](Cc1ccccc1)NC(=O)[C@H](CC(N)=O)NC(=O)[C@@H]1CCCN1C(=O)[C@H](CO)NC(=O)[C@H](CO)NC(=O)[C@H](Cc1c[nH]cn1)NC(=O)[C@H](CCCNC(=N)N)NC(=O)[C@H](CC(C)C)NC(=O)[C@H](Cc1ccccc1)NC(=O)[C@H](CO)NC(=O)[C@H](C)NC(=O)[C@H](CC(C)C)NC(=O)[C@H](CCCNC(=N)N)NC(=O)[C@H](CCC(N)=O)NC(=O)[C@@H](NC(=O)[C@H](C)NC(=O)[C@@H]1CSSC[C@H](NC(=O)[C@@H](N)CCCCNC(=O)CC[C@H](NC(=O)CC[C@H](NC(=O)CCCCCCCCCCCCCCCCCCC(=O)O)C(=O)O)C(=O)O)C(=O)N[C@@H](CC(N)=O)C(=O)N[C@@H]([C@@H](C)O)C(=O)N[C@@H](C)C(=O)N[C@@H]([C@@H](C)O)C(=O)N1)[C@@H](C)O)C(=O)N1CCC[C@H]1C(=O)N[C@@H](CO)C(=O)N[C@@H](CO)C(=O)N[C@H](C(=O)N[C@@H](CC(N)=O)C(=O)N[C@H](C(=O)NCC(=O)N1CCC[C@H]1C(=O)N[C@@H](CCC(=O)O)C(=O)N[C@H](C(=O)N[C@@H](Cc1ccc(O)cc1)C(N)=O)[C@@H](C)O)C(C)C)[C@@H](C)O
notes: not restated for each compound; also called compound 120
B4: N^ε1-[(4S)-4-carboxy-4-[[(4S)-4-carboxy-4-(19-carboxynonadecanoylamino)butanoyl]amino]butanoyl]-[Asp14,Arg17,Pro21,Pro27,Pro34,Arg35]-h-amylin (peptide)
peptide: K([γGlu-γGlu-C20 diacid])CNTATCATQRLADFLRHSSPNFGAIPSSTNVGPRTY-NH2
modifications: disulfide 2-7
notes: not restated for each compound; also called compound 130
B5: N^ε1-[(4S)-4-carboxy-4-[[(4S)-4-carboxy-4-(19-carboxynonadecanoylamino)butanoyl]amino]butanoyl]-[Glu14,Arg17,Pro21,Pro27,Pro34,His35]-h-amylin (peptide)
peptide: K([γGlu-γGlu-C20 diacid])CNTATCATQRLAEFLRHSSPNFGAIPSSTNVGPHTY-NH2
modifications: disulfide 2-7 (inferred)
notes: as for B1
B6: N^ε1-[(4S)-4-carboxy-4-[[(4S)-4-carboxy-4-(19-carboxynonadecanoylamino)butanoyl]amino]butanoyl]-[Glu14,Arg17,Pro21,Pro27,His34,Glu35]-h-amylin (peptide)
peptide: K([γGlu-γGlu-C20 diacid])CNTATCATQRLAEFLRHSSPNFGAIPSSTNVGHETY-NH2
modifications: disulfide 2-7; N-terminus assumed
SMILES: CC[C@H](C)[C@H](NC(=O)[C@H](C)NC(=O)CNC(=O)[C@H](Cc1ccccc1)NC(=O)[C@H](CC(N)=O)NC(=O)[C@@H]1CCCN1C(=O)[C@H](CO)NC(=O)[C@H](CO)NC(=O)[C@H](Cc1c[nH]cn1)NC(=O)[C@H](CCCNC(=N)N)NC(=O)[C@H](CC(C)C)NC(=O)[C@H](Cc1ccccc1)NC(=O)[C@H](CCC(=O)O)NC(=O)[C@H](C)NC(=O)[C@H](CC(C)C)NC(=O)[C@H](CCCNC(=N)N)NC(=O)[C@H](CCC(N)=O)NC(=O)[C@@H](NC(=O)[C@H](C)NC(=O)[C@@H]1CSSC[C@H](NC(=O)[C@@H](N)CCCCNC(=O)CC[C@H](NC(=O)CC[C@H](NC(=O)CCCCCCCCCCCCCCCCCCC(=O)O)C(=O)O)C(=O)O)C(=O)N[C@@H](CC(N)=O)C(=O)N[C@@H]([C@@H](C)O)C(=O)N[C@@H](C)C(=O)N[C@@H]([C@@H](C)O)C(=O)N1)[C@@H](C)O)C(=O)N1CCC[C@H]1C(=O)N[C@@H](CO)C(=O)N[C@@H](CO)C(=O)N[C@H](C(=O)N[C@@H](CC(N)=O)C(=O)N[C@H](C(=O)NCC(=O)N[C@@H](Cc1c[nH]cn1)C(=O)N[C@@H](CCC(=O)O)C(=O)N[C@H](C(=O)N[C@@H](Cc1ccc(O)cc1)C(N)=O)[C@@H](C)O)C(C)C)[C@@H](C)O
notes: as for B1
B7: N^ε1-[(4S)-4-carboxy-4-[[(4S)-4-carboxy-4-(19-carboxynonadecanoylamino)butanoyl]amino]butanoyl]-[Asp14,Arg17,Pro21,Pro27,Pro34,Glu35]-h-amylin (peptide)
peptide: K([γGlu-γGlu-C20 diacid])CNTATCATQRLADFLRHSSPNFGAIPSSTNVGPETY-NH2
modifications: disulfide 2-7
notes: as for B1

Experiments:
[1] = molecular target: T1, human calcitonin receptor; assay: ratio of IC50 on human calcitonin receptor (Assay VII) to IC50 on human amylin receptor (Assay V)
Protocol: The resulting pellet was resuspended, homogenized and centrifuged (20.000 rpm, 15 min) in a buffer containing 20 mM Na-HEPES and 0.1 mM EDTA (pH 7.4, buffer 2). The resulting pellet was resuspended in buffer 2 and protein concentration was measured (BCA protein Assay, Pierce). The homogenate was kept cold during the whole procedure. The membranes were kept at −80° C. until use. The assay was performed in a 384 well Optiplate (PerkinElmer) in a total volume of 40 ul. Membranes were mixed with SPA beads. Final concentration of membranes 35 ng/μL final and SPA beads was 0.05 mg/well. Test-compounds were dissolved in DMSO and further diluted in assay buffer (50 mM Hepes, pH 7.4, 1 mM CaCl2, 5 mM MgCl₂, 0.1% OA and 0.02% Tween20). […] The final mixture was incubated with shaking at 400 rpm for 120 min at 25° C. prior to centrifugation (1500 rpm, 10 min). Samples were analyzed on TopCounter™ (Packard). The IC₅₀ was calculated using (one site binding competition analysis) GraphPad Prism5 as a measure of receptor affinity.
Membranes were prepared in the following way; the cells were rinsed with PBS and incubated with Versene for approximately 5 min before harvesting. The cells were flushed with PBS and the cell-suspension was centrifuged for 5 min at 1000 rpm. Cells were homogenized (Ultrathurrax) in a buffer containing 20 mM Na-HEPES and 10 mM EDTA (pH 7.4) and centrifuged at 20.000 rpm for 15 min. The resulting pellet was resuspended, homogenized and centrifuged (20.000 rpm, 15 min) in a buffer containing 20 mM Na-HEPES and 0.1 mM EDTA (pH 7.4, buffer 2). The resulting pellet was resuspended in buffer 2 and protein concentration was measured (BCA protein Assay, Pierce). The homogenate was kept cold during the whole procedure. The membranes were kept at −80° C. until use. Assay was performed in a 384 well Optiplate (PerkinElmer) in a total volume of 40 ul. Membranes were mixed with SPA beads.

[2] = molecular target: T2, rat amylin receptor (rat calcitonin …); assay: SPA competition binding, displacement of 125I-rat amylin from membranes of BHK tk'ts 13 cells transfected with rat calcitonin receptor + rat RAMP 3 (Assay VI)
rat calcitonin receptor [3] = molecular target: T3, rat calcitonin receptor; assay: SPA competition binding, displacement of 125I-calcitonin from membranes of BHK tk'ts 13 cells transfected with rat calcitonin receptor (Assay VIII)
rat calcitonin receptor [4] = molecular target: T3, rat calcitonin receptor; assay: ratio of IC50 on rat calcitonin receptor (Assay VIII) to IC50 on rat amylin receptor (Assay VI)

Binder	Ratio hCT/hAmylin binding [1]	IC50 [2] [nM]	IC50 (rat calcitonin receptor [3]) [nM]	Ratio rCT/rAmylin binding (rat calcitonin receptor [4])
B1	48.6	0.381	52.4	137
B2	22.6	0.449	33.5	74.7
B3	45.3	0.161	140	868
B4	280	0.93	223	240
B5	27.3	0.288	21	73
B6	29.1	3.14	498	159
B7	49.8	0.324	31.9	98.5
